Our source for the K1/2 and fold sensitivity of the FP increase to the H3Kc9me3 mark over the H3K9 control values is article PMC3752401.

One assay concerns the target H3K9 core mononucleosome. In words: native gel or EMSA. Background: Mobility shift assays separate free from complexed probe on a gel.
Assay [1] deals with H3Kc9me3 core mononucleosome. In words: native gel or EMSA.
The target of assay [2] is H3Kc9me3 core mononucleosome. As to the kind of experiment: fluorescence polarisation. Background: In fluorescence polarisation assays a small probe gives low polarisation when free and higher when bound to something large.

Suv39/Clr4 (full length wild-type), sequence (O60016 whole entry): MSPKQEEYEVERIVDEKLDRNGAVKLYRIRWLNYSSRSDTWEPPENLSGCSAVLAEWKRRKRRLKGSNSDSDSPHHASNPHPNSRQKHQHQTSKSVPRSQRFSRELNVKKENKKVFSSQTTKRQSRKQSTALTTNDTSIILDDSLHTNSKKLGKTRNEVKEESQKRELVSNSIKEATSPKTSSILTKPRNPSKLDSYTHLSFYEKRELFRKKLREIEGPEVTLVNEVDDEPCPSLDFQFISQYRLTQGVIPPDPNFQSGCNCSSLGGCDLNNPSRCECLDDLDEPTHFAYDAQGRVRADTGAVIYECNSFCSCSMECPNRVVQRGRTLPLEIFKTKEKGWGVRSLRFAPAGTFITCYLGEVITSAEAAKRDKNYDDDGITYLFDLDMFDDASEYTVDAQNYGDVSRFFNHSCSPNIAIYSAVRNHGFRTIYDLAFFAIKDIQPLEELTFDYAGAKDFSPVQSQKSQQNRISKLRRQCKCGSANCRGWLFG

On to “Suv39/Clr4 (full length wild-type) (from UniProt O60016 1-490) (enzyme)”, for which the K1/2 with H3K9 core mononucleosome amounted to 1.8 µM; in assay [1], 1.5 µM. This substance displayed a fold sensitivity of the FP increase to the H3Kc9me3 mark over the H3K9 control in assay [2] of over 25 fold.
